To fix the notation:
B5: EHBP1 bMERB domain (bMERB_(1060-1212), full-length bMERB domain) (domain or fragment)
chain: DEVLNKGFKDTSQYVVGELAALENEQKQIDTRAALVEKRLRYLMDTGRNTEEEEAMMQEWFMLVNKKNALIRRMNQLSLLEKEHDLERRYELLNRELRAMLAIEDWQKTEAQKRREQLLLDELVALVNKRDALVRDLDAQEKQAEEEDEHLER

In assay [1] the target is B5. Kind of assay: displacement by GppNHp Rab8a.
Assay [2] has as its target EHBP1 full-length bMERB domain M1116A (human, UniProt Q8NDI1-1 1060-1212, M1116A). The experiment in a line: ITC.
In assay [3] the target is EHBP1 full-length bMERB domain M1103A (human, UniProt Q8NDI1-1 1060-1212, M1103 to alanine). The experiment in a line: ITC. Background: In ITC the heat of successive injections is recorded.
Chain of EHBP1 full-length bMERB domain M1103A (Q8NDI1 1060-1212 M1103A): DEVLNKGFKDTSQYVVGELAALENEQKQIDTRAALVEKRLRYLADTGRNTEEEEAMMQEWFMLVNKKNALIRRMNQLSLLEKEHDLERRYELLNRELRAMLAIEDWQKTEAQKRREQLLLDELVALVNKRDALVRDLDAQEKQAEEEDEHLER
The target of assay [4] is B5. Kind of assay: ITC.
The target of assay [5] is EHBP1 bMERB domain L1182S (human, UniProt Q8NDI1-1 1060-1212, L1182S). Kind of assay: ITC; GppNHp.
Chain of EHBP1 bMERB domain L1182S (Q8NDI1 1060-1212 L1182S): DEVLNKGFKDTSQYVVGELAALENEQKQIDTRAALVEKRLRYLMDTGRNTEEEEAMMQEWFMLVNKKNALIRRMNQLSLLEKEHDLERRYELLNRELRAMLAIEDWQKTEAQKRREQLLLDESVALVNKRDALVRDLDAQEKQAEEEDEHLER
Assay [6] has as its target EHBP1 bMERB domain N1187A (human, UniProt Q8NDI1-1 1060-1212, N1187A). Kind of assay: ITC; GppNHp.
In assay [7] the target is EHBP1 bMERB domain L1179S (human, UniProt Q8NDI1-1 1060-1212, L1179S). The experiment in a line: ITC; GppNHp.
Chain of EHBP1 bMERB domain L1179S (Q8NDI1 1060-1212 L1179S): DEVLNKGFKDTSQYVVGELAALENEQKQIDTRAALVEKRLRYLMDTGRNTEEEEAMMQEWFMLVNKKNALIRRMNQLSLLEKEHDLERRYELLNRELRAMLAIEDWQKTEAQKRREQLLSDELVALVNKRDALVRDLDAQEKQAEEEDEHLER
Assay [8] deals with EHBP1 bMERB domain R1189A (human, UniProt Q8NDI1-1 1060-1212, R1189A). Kind of assay: ITC; GppNHp.
Chain of EHBP1 bMERB domain R1189A (Q8NDI1 1060-1212 R1189A): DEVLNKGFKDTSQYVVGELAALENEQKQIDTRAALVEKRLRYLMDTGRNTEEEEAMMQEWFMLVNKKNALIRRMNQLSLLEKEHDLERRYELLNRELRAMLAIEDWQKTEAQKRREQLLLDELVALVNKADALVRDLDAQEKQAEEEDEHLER
Assay [9] deals with EHBP1 bMERB domain Q1176A (human, UniProt Q8NDI1-1 1060-1212, Q1176A). Kind of assay: ITC; GppNHp.
Chain of EHBP1 bMERB domain Q1176A (Q8NDI1 1060-1212 Q1176A): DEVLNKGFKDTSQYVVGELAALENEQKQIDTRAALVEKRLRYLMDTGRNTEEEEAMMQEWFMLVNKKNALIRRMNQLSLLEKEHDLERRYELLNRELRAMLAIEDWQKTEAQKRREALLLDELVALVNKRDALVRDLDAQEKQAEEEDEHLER
Assay [10] deals with EHBP1 bMERB domain L1156S (human, UniProt Q8NDI1-1 1060-1212, L1156S). Kind of assay: ITC; GppNHp.
Chain of EHBP1 bMERB domain L1156S (Q8NDI1 1060-1212 L1156S): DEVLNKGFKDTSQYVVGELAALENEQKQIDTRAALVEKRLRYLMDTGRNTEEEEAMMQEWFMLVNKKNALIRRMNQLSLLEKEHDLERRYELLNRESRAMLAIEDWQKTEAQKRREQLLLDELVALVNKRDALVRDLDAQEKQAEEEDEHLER
Assay [11] addresses EHBP1 CH domain M537A (human, UniProt Q8NDI1-1 440-550, M537 to alanine). Kind of assay: ITC.
Assay [12] has as its target EHBP1 CH domain D532A (human, UniProt Q8NDI1-1 440-550, D532 to alanine). Kind of assay: ITC.
Assay [13] addresses EHBP1 CH domain Q542A (human, UniProt Q8NDI1-1 440-550, Q542 to alanine). Kind of assay: ITC.
The target in assay [14] is EHBP1 CH domain Y541A (human, UniProt Q8NDI1-1 440-550, Y541 to alanine). The experiment in a line: ITC.
Chain of EHBP1 CH domain Y541A (Q8NDI1 1060-1212, stated change not applied): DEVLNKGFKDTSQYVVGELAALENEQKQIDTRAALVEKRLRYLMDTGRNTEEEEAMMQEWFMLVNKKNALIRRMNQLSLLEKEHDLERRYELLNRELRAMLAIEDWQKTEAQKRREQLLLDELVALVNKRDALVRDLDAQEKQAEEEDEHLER
For assay [15], the target named is Rab8a_(1-176_T72E) (phosphomimetic Rab8a) (human, UniProt P61006 1-176, T72E). Kind of assay: ITC.

The koff is the rate constant with which the complex falls apart. High values mean a short-lived complex, low ones a long-lived complex. One may read the Kd as the free concentration of one partner at which half of the binding sites on the other are occupied at equilibrium, for simple one-to-one binding.

Chain of EHBP1 bMERB domain N1187A (Q8NDI1 1060-1212 N1187A): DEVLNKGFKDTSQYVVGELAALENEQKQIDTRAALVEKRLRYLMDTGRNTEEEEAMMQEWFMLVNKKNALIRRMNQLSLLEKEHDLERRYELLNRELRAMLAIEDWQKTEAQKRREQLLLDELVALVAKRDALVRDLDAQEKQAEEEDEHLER
Chain of EHBP1 CH domain D532A (Q8NDI1 1060-1212, stated change not applied): as the sequence (Q8NDI1 1060-1212, stated change not applied) above
Chain of EHBP1 CH domain M537A (Q8NDI1 1060-1212, stated change not applied): as above
Chain of EHBP1 CH domain Q542A (Q8NDI1 1060-1212, stated change not applied): as above
Chain of EHBP1 full-length bMERB domain M1116A (Q8NDI1 1060-1212 M1116A): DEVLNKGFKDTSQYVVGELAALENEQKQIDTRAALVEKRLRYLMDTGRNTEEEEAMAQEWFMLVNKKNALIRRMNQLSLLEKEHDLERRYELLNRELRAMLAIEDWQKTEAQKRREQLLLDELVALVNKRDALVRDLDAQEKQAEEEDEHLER

B1: Cy3 labeled EHBP1 CH domain (domain or fragment)
chain: GRKPNASQSLLVWCKEVTKNYRGVKITNFTTSWRNGLSFCAILHHFRPDLIDYKSLNPQDIKENNKKAYDGFASIGISRLLEPSDMVLLAIPDKLTVMTYLYQIRAHFSGQ
modifications: Cy3 on the N-terminus
In assay [1], B1 returned a koff of 165 s⁻¹.

B2: EHBP1 CH (calponin homology) domain (domain or fragment)
chain: GRKPNASQSLLVWCKEVTKNYRGVKITNFTTSWRNGLSFCAILHHFRPDLIDYKSLNPQDIKENNKKAYDGFASIGISRLLEPSDMVLLAIPDKLTVMTYLYQIRAHFSGQ
B2: the Kd came to 15.8 µM in assay [2] and 34.7 µM in assay [3].

B3: Rab10_(1-175) (human Rab10 G-domain) (domain or fragment)
chain: MAKKTYDLLFKLLLIGDSGVGKTCVLFRFSDDAFNTTFISTIGIDFKIKTVELQGKKIKLQIWDTAGQERFHTITTSYYRGAMGIMLVYDITNGKSFENISKWLRNIDEHANEDVERMLLGNKCDMDDKRVVPKGKGEQIAREHGIRFFETSAKANINIEKAFLTLAEDILRKTP
Consider B3, for which, in assay [4], the equilibrium dissociation constant (Kd) came to 0.32 µM.

B4: Rab8a_(1-176) (human Rab8a G-domain) (domain or fragment)
chain: MAKTYDYLFKLLLIGDSGVGKTCVLFRFSEDAFNSTFISTIGIDFKIRTIELDGKRIKLQIWDTAGQERFRTITTAYYRGAMGIMLVYDITNEKSFDNIRNWIRNIEEHASADVEKMILGNKCDVNDKRQVSKERGEKLALDYGIKFMETSAKANINVENAFFTLARDIKAKMDKK
On to B4, for which the Kd in assay [5] is 3.04 µM; in [6], 1.5 µM; in assay [7], 3.23 µM; in [8] it was 6 µM; in [9], 0.33 µM; in assay [10] it was 14.3 µM.
For the molecule B5, the Kd in [11] was determined as 7.6 µM; in assay [12], 43.5 µM; in assay [13], 3.85 µM; in assay [14] it was 5.65 µM; in assay [15] it was 0.4 µM.

For the origin of these results see article PMC7442826 (2020).
